B1: E. coli rBAG3 (Abcam) (natural protein)
chain: not shown
B2: BAG3-H2L4 (antibody, V domains shown)
VH: QVQLVQSGAEVKKPGASVKVSCKASGFNIKDTYMYWVRQAPGQGLEWMGGVDPANGNTRYDPKFQGRVTLTRDTSTSTVYMELSSLRSEDTAVYYCGRDGAMDYWGQGTLVTVSS
VL: DIVMTQSPDSLAVSLGERATMSCKSSQSLLYSSNQKNYLAWHQQKPGQPPKLLIYWASTRESGVPDRFSGSGSGTDFTLTISSLQAEDLAIYYCQQYYTYPLTFGAGTKLEIK
B3: BAG3-H4L2 (antibody, V domains shown)
VH: EVQLVQSGAEVKKPGATVKISCKVSGFNIKDTYMYWVQQAPGKGLEWMGGVDPANGNTRYDPKFQGRVTITADTSTDTAYMELSSLRSEDTAVYYCARDGAMDYWGQGTLVTVSS
VL: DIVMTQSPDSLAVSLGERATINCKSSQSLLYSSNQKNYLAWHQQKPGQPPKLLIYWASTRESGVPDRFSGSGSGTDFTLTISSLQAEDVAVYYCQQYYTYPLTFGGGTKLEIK

Assays:
Assay in all cases: SPR
BAG3-H1L4 = target: BAG3-H1L4
BAG3-H3L3 = target: BAG3-H3L3
BAG3-H4L4 = target: BAG3-H4L4
BAG3-H1L3 = target: BAG3-H1L3
BAG3-H4L3 = target: BAG3-H4L3
BAG3-H2L2 = target: BAG3-H2L2
BAG3-H1L2 = target: BAG3-H1L2
BAG3-H2L3 = target: BAG3-H2L3
BAG3-H3L4 = target: BAG3-H3L4
BAG3-H3L2 = target: BAG3-H3L2
E. coli rBAG3 (Abcam) = target: B1

| Binder | Kd (BAG3-H1L4) [nM] | Kd (BAG3-H3L3) [nM] | Kd (BAG3-H4L4) [nM] | Kd (BAG3-H1L3) [nM] | Kd (BAG3-H4L3) [nM] | Kd (BAG3-H2L2) [nM] | Kd (BAG3-H1L2) [nM] | Kd (BAG3-H2L3) [nM] | Kd (BAG3-H3L4) [nM] | Kd (BAG3-H3L2) [nM] | Kd (E. coli rBAG3 (Abcam)) [nM] |
| --- | --- | --- | --- | --- | --- | --- | --- | --- | --- | --- | --- |
| B1 | 2.34 | 1.61 | 1.72 | 2.83 | 1.98 | 2.63 | 2.84 | 1.98 | 1.7 | 1.78 | – |
| B2 | – | – | – | – | – | – | – | – | – | – | 2.04 |
| B3 | – | – | – | – | – | – | – | – | – | – | 2.02 |

From paper PMC6547619 (2019)
